Columns and labels:
Assay type in all cases: biochemical
[1] = Validation of generalist properties: oxidation of gefitinib by lyophilized P450-BM3 variant, UPLC-MS; conditions: [Gefitinib] = 1 mM; for TON: TON = [substrate]*% conversion/[P450]; for FIOPC (A05): fold improvement over parent MCYP-1.2-A05
Protocol: (§1) For the production of lyophilized protein powders, LB agar plates supplemented with chloramphenicol (30 μg/mL) were streaked with E. coli containing a desired B. megaterium P450-BM3 variant in an IPTG-inducible vector. The plates were grown at 37° C. for 16 hrs before single clones were selected to inoculate a 15 mL Falcon™ tube (Fisher) containing TB media (3 mL) supplemented with chloramphenicol (30 μg/mL). The tube was shaken at 200 rpm, 30° C., and 85% humidity for 20-24 h to grow the cultures to saturation. Then, 2.5 mL of the overnight culture was used to inoculate sterile 1 L flasks containing TB medium (250 mL) supplemented with chloramphenicol (30 μg/mL), trace element solution (as described above), and 0.05 g/L ammonium iron (III) citrate. After being shaken at 250 rpm, 30° C., and 85% humidity to an OD600 of 0.8-1.2, P450 expression was induced by addition of IPTG (500 uM) and the heme precursor 5-aminolevulinic acid (5-ALA) to a final concentration of 500 uM. The cultures were grown for additional 20-24 hours and centrifuged in pre-weighed 250 mL centrifuge bottles for 20 minutes at 4000 rpm, 4° C. The supernatants were discarded, and the centrifuge bottles containing cell pellets were weighed. The pellets were resuspended in 50 mM potassium phosphate buffer with 2 mM DTT, pH 8.0 (5 mL of buffer per gram of cell pellet). The cells were lysed using a microfluidizer homogenizer, and the suspensions of cells and lysate were collected in sterile 50 mL centrifuge tubes. The samples were centrifuged for 30 minutes at 10,000 rpm, 4° C. The clarified lysate was collected into a plastic petri plate and frozen at −80° C. prior to lyophilization. The enzyme-containing lysates were lyophilized using standard methods known in the art.
(§2) Enzyme stocks (˜12 μM) were prepared by dissolving ˜20 mg of each enzyme in 100 mM potassium phosphate buffer, pH 8.0 (1 mL). The concentration of each enzyme stock solution was determined by the UV-visible absorption spectroscopy (after centrifugation to remove particulates) and diluted to standardize at 12 μM heme protein. Substrate solutions were prepared by dissolving each substrate in DMSO to reach a final concentration of 20 mM or 40 mM. Reaction mix (235 μL) followed by enzyme solution (50 μL) was added to the plates. The substrate stock solution was added to the enzyme solutions (15 μL at the two different concentrations). Each reaction contained 100 mM potassium phosphate, 1.0 mM NADP+, 25 mM glucose, 0.5 mg/mL glucose dehydrogenase, 5% DMSO and substrate at 1 or 2 mM. Loratadine, imatinib, and gefitinib (See, FIG. 1) were selected as substrates in addition to diclofenac to validate improved BM3 variants. The reactions were shaken at 450 rpm at 30° C. over 24 hours. All reactions were diluted with acetonitrile to a final concentration of 0.5 mM substrate. The plates were then centrifuged at 3,000 g for 1 hour at 20° C. The supernatant was diluted 1:1 with acetonitrile, filtered using a 0.4 micron filter, and analyzed by UPLC-MS.
(§3) For UPLC-MS analysis, the quenched and filtered reactions were transferred to 96-well HTP plates for analysis by UPLC on a Waters Acquity H-class system equipped with an autosampler. 1 uL of quenched sample was injected onto an Acquity UPLC HSS T3 column, 100 Å, (1.8 um; 2.1×100 mm). The column was eluted at a constant flow rate of 0.6 mL/min; conditions with solvent A (0.05% trifluoroacetic acid v/v, in H2O) and solvent B (0.05% trifluoroacetic acid v/v, in acetonitrile) used to elute the products of the reaction were: 0-2 min, A/B 95:5; 2-2.9 min, A/B 5:95; 2.9-3 min, A/B 95:5; 3-3.5 min, A/B 95:5. Column eluent was monitored by PDA (200-600 nm) prior to MS analysis in positive ESI mode (desolvation temperature 350° C., 3.25 kV spray voltage, cone voltage 25V). The column eluent was diverted to waste for the first 0.7 minutes of the run. For the remainder of the LC run, both MS (m/z 95-600 scan range) and MS/MS were collected. […]

[2] = Validation of generalist properties: oxidation of imatinib by lyophilized P450-BM3 variant, UPLC-MS; conditions: [Imatinib] = 1 mM; for TON: TON = [substrate]*% conversion/[P450]; for FIOPC (A05): fold improvement over parent MCYP-1.2-A05
Protocol: as §1, §2, §3

[3] = Validation of generalist properties: oxidation of diclofenac by lyophilized P450-BM3 variant, UPLC-MS; conditions: [Diclofenac] = 1 mM; for TON: TON = [substrate]*% conversion/[P450]; for FIOPC (A05): fold improvement over parent MCYP-1.2-A05
Protocol: as §1, §2, §3

[4] = Validation of generalist properties: oxidation of loratadine by lyophilized P450-BM3 variant, UPLC-MS; conditions: [Loratadine] = 1 mM; for TON: TON = [substrate]*% conversion/[P450]; for FIOPC (A05): fold improvement over parent MCYP-1.2-A05
Protocol: as §1, §2, §3

Row | Molecule | % Conv. [1] | TON [1] | FIOPC (A05) [1] | % Conv. [2] | TON [2] | FIOPC (A05) [2] | % Conv. [3] | TON [3] | FIOPC (A05) [3] | % Conv. [4] | TON [4] | FIOPC (A05) [4]
1 | Variant 6: P450-BM3 variant of SEQ ID NO: 2: V51S; D118R; L219Y; K236H; P351T; S353T; N579T; T582A; E624D; A632S; D727S; Q931K (protein, P450_BM3, D118R; L219Y; K236H; P351T; S353T; N579T; T582A; E624D; A632S; D727S; Q931K) MLMKQASAIPQPKTYGPLKNLPHLEKEQLSQSLWRIADELGPIFRFDFPGSSSVFVSGHNLVAEVCDEERFDKSIEGALEKVRAFSGDGLATSWTHEPNWRKAHNILMPTFSQRAMKRYHEKMVDIATQLIQKWSRLNPNEEIDVADDMTRLTLDTIGLCGFNYRFNSFYRDQPHPFITSMVRALDEAMNKLQRANPDDPAYDENKRQFQEDIKVMNDYVDSIIAERRANGDQDEHDLLARMLNVEDPETGEKLDDENIRFQIITFLIAGHETTSGLLSFAIYCLLTHPEKLKKAQEEADRVLTDDTPEYKQIQQLKYIRMVLNETLRLYPTAPAFSLYAKEDTVLGGEYTITKGQPVTVLIPKLHRDQNAWGPDAEDFRPERFEDPSSIPHHAYKPFGNGQRACIGMQFALQEATMVLGLVLKHFELINHTGYELKIKEALTIKPDDFKITVKPRKTAAINVQRKEQAEQSAKKVRKKAENAHNTPLLVLYGSNMGTAEGTARDLADIAMSKGFAPQVATLDSHAGNLPREGAVLIVTASYNGHPPDNAKQFVDWLDQASADEVKGVRYSVFGCGDKTWAATYQKVPAFIDETLAAKGAENIADRGEADASDDFEGTYEEWRDHMWSDVASYFNLDIENSEDNKSTLSLQFVDSAADMPLAKMHGAFSTNVVASKELQQPGSARSTRHLEIELPKEASYQEGDHLGVIPRNYEGIVNRVTARFGLSASQQIRLEAEEEKLAHLPLAKTVSVEELLQYVELQDPVTRTQLRAMAAKTVCPPHKVELEALLEKQAYKEQVLAKRLTMLELLEKYPACEMKFSEFIALLPSIRPRYYSISSSPRVDEKQASITVSVVSGEAWSGYGEYKGIASNYLAELQEGDTITCFISTPQSEFTLPKDPETPLIMVGPGTGVAPFRGFVQARKQLKEQGKSLGEAHLYFGCRSPHEDYLYQEELENAQSEGIITLHTAFSRMPNQPKTYVQHVMEQDGKKLIELLDQGAHFYICGDGSQMAPAVEATLMKSYADVHQVSEADARLWLQQLEEKGRYAKDVWAG | + (0-5.00) | ‡ (0-1000) | * (0.0-3.0) | ++++ (15.01-20.00) | ‡‡‡‡ (10000-50000) | * (0.0-3.0) | ++ (5.01-10.00) | ‡‡ (1001-5000) | **** (10.01-15.00) | ++ (5.01-10.00) | ‡‡ (1001-5000) | **** (10.01-15.00)
2 | Variant 7: P450-BM3 variant of SEQ ID NO: 2: V51S; D118R; T179V; L219Y; P351T; N579T; T582A; E624D; D727S (protein, P450_BM3, D118R; T179V; L219Y; P351T; N579T; T582A; E624D; D727S) MLMKQASAIPQPKTYGPLKNLPHLEKEQLSQSLWRIADELGPIFRFDFPGSSSVFVSGHNLVAEVCDEERFDKSIEGALEKVRAFSGDGLATSWTHEPNWRKAHNILMPTFSQRAMKRYHEKMVDIATQLIQKWSRLNPNEEIDVADDMTRLTLDTIGLCGFNYRFNSFYRDQPHPFIVSMVRALDEAMNKLQRANPDDPAYDENKRQFQEDIKVMNDYVDSIIAERRANGDQDEKDLLARMLNVEDPETGEKLDDENIRFQIITFLIAGHETTSGLLSFAIYCLLTHPEKLKKAQEEADRVLTDDTPEYKQIQQLKYIRMVLNETLRLYPTAPAFSLYAKEDTVLGGEYTISKGQPVTVLIPKLHRDQNAWGPDAEDFRPERFEDPSSIPHHAYKPFGNGQRACIGMQFALQEATMVLGLVLKHFELINHTGYELKIKEALTIKPDDFKITVKPRKTAAINVQRKEQAEQSAKKVRKKAENAHNTPLLVLYGSNMGTAEGTARDLADIAMSKGFAPQVATLDSHAGNLPREGAVLIVTASYNGHPPDNAKQFVDWLDQASADEVKGVRYSVFGCGDKTWAATYQKVPAFIDETLAAKGAENIADRGEADASDDFEGTYEEWRDHMWSDVAAYFNLDIENSEDNKSTLSLQFVDSAADMPLAKMHGAFSTNVVASKELQQPGSARSTRHLEIELPKEASYQEGDHLGVIPRNYEGIVNRVTARFGLSASQQIRLEAEEEKLAHLPLAKTVSVEELLQYVELQDPVTRTQLRAMAAKTVCPPHKVELEALLEKQAYKEQVLAKRLTMLELLEKYPACEMKFSEFIALLPSIRPRYYSISSSPRVDEKQASITVSVVSGEAWSGYGEYKGIASNYLAELQEGDTITCFISTPQSEFTLPKDPETPLIMVGPGTGVAPFRGFVQARKQLKEQGQSLGEAHLYFGCRSPHEDYLYQEELENAQSEGIITLHTAFSRMPNQPKTYVQHVMEQDGKKLIELLDQGAHFYICGDGSQMAPAVEATLMKSYADVHQVSEADARLWLQQLEEKGRYAKDVWAG | + (0-5.00) | ‡ (0-1000) | * (0.0-3.0) | ++ (5.01-10.00) | ‡‡‡‡ (10000-50000) | ** (3.01-5.0) | + (0-5.00) | ‡‡ (1001-5000) | **** (10.01-15.00) | ++ (5.01-10.00) | ‡‡ (1001-5000) | **** (10.01-15.00)

Reference: patent US10704030B2, “P450-BM3 variants with improved activity” (Codexis, Inc., priority 2015, dated 2020)
